Data as given in patent US20170015742A1 (published 2017).

molecular target: Human VEGF-A 165 (human, UniProt P15692 207-395); test: cell-based or functional assay
Target sequence in this assay (P15692 other isoform, or with tags, fused parts or gaps limits assumed): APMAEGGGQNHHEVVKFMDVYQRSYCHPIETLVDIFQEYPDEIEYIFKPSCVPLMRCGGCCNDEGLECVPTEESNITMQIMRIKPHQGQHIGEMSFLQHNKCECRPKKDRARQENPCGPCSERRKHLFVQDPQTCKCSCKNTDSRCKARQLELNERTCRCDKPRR

Row | Binder | hVEGF165 IC50 (nM), HMVEC-d proliferation [nM]
1 | hBEW-9A8.21 (antibody, V domains shown) VH: EIQLVQSGAEVKKPGASVKVSCKASGYTFTNYGMYWVRQAPGQGLEWMGWINTETGKPIYADDFKGRFTFTLDTSTSTAYMELRSLRSDDTAVYYCARVDYDGSFWFAYWGQGTLVTVSS VL: ETVLTQSPATLSLSPGERATLSCRASESVSTVIHWYQQKPGQQPRLLIHGASNLESGVPARFSGSGSGTDFTLTISSLEPEDFAVYFCQQHWNDPPTFGQGTKLEIK | 0.09
2 | hBEW-9E10.1 (antibody, V domains shown) VH: EIQLVQSGSELKKPGASVKVSCKASGYTFTNYGMYWVKQAPGQGLEYMGWIDTETGRPTYADDFKGRFVFSLDTSVSTAYLQISSLKAEDTAVYFCARWSGDTTGIRGPWFAYWGQGTLVTVSS VL: DIRMTQSPSSLSASVGDRVTIECLASEDIYSDLAWYQQKPGKSPKLLIYNANGLQNGVPSRFSGSGSGTDYSLTISSLQPEDVATYFCQQYNYFPGTFGQGTKLEIK | 0.064
3 | hBEW-9E10.3 (antibody, V domains shown) VH: EVQLVQSGAEVKKPGSSVKVSCKASGYTFTNYGMYWVRQAPGQGLEWMGWIDTETGRPTYADDFKGRFTFTADKSTSTAYMELSSLRSEDTAVYYCARWSGDTTGIRGPWFAYWGQGTLVTVSS VL: DIRMTQSPSSLSASVGDRVTIECLASEDIYSDLAWYQQKPGKSPKLLIYNANGLQNGVPSRFSGSGSGTDYSLTISSLQPEDVATYFCQQYNYFPGTFGQGTKLEIK | 0.062

Results, then the binder that gave them:

Row | hVEGF165 IC50 (nM), HMVEC-d proliferation [nM] | Binder
4 | 0.064 | hBEW-9A8.20 (antibody, V domains shown) VH: EIQLVQSGAEVKKPGASVKVSCKASGYTFTNYGMYWVKQAPGQGLEYMGWINTETGKPIYADDFKGRFTFTLDTSTSTAYMELRSLRSDDTAVYYCARVDYDGSFWFAYWGQGTLVTVSS VL: ETVLTQSPATLSLSPGERATLSCRASESVSTVIHWYQQKPGQQPRLLIHGASNLESGVPARFSGSGSGTDFTLTISSLEPEDFAVYFCQQHWNDPPTFGQGTKLEIK
5 | 0.071 | hBEW-9E10.4 (antibody, V domains shown) VH: EIQLVQSGSELKKPGASVKVSCKASGYTFTNYGMYWVKQAPGQGLEYMGWIDTETGRPTYADDFKGRFVFSLDTSVSTAYLQISSLKAEDTAVYFCARWSGDTTGIRGPWFAYWGQGTLVTVSS VL: DIRMTQSPSSLSASVGDRVTITCLASEDIYSDLAWYQQKPGKSPKLLIYNANGLQNGVPSRFSGSGSGTDYTLTISSLQPEDVATYFCQQYNYFPGTFGQGTKLEIK
6 | 0.181 | hBEW-9E10.2 (antibody, V domains shown) VH: EIQLVQSGAEVKKPGSSVKVSCKASGYTFTNYGMYWVKQAPGQGLEYMGWIDTETGRPTYADDFKGRFTFTADKSTSTAYMELSSLRSEDTAVYFCARWSGDTTGIRGPWFAYWGQGTLVTVSS VL: DIRMTQSPSSLSASVGDRVTIECLASEDIYSDLAWYQQKPGKSPKLLIYNANGLQNGVPSRFSGSGSGTDYSLTISSLQPEDVATYFCQQYNYFPGTFGQGTKLEIK
7 | 0.068 | hBEW-9E10.6 (antibody, V domains shown) VH: EVQLVQSGAEVKKPGSSVKVSCKASGYTFTNYGMYWVRQAPGQGLEWMGWIDTETGRPTYADDFKGRFTFTADKSTSTAYMELSSLRSEDTAVYYCARWSGDTTGIRGPWFAYWGQGTLVTVSS VL: DIRMTQSPSSLSASVGDRVTITCLASEDIYSDLAWYQQKPGKSPKLLIYNANGLQNGVPSRFSGSGSGTDYTLTISSLQPEDVATYFCQQYNYFPGTFGQGTKLEIK
8 | 0.229 | hBEW-9E10.5 (antibody, V domains shown) VH: EIQLVQSGAEVKKPGSSVKVSCKASGYTFTNYGMYWVKQAPGQGLEYMGWIDTETGRPTYADDFKGRFTFTADKSTSTAYMELSSLRSEDTAVYFCARWSGDTTGIRGPWFAYWGQGTLVTVSS VL: DIRMTQSPSSLSASVGDRVTITCLASEDIYSDLAWYQQKPGKSPKLLIYNANGLQNGVPSRFSGSGSGTDYTLTISSLQPEDVATYFCQQYNYFPGTFGQGTKLEIK

molecular target: T1, Human VEGF-A 165 (human, UniProt P15692 207-395); test: SPR (Biacore), antibody captured by anti-human Fc, hVEGF165 as analyte
T1 construct: Recombinant human VEGF165; also called huVEGF-A165; hVEGF165
Protocol: For example, approximately 9000 RU of goat anti-human Fc specific polyclonal antibody (Thermo Fisher Scientific Inc., Rockford, Ill.) diluted in 10 mM sodium acetate (pH 4.5) is directly immobilized across a CM5 research grade biosensor chip using a standard amine coupling kit according to manufacturer's instructions and procedures at 25 μg/ml. Unreacted moieties on the biosensor surface were blocked with ethanolamine. For kinetic analysis, rate equations derived from the 1:1 Langmuir binding model were fitted simultaneously to multiple antigen injections (using global fit analysis) with the use of Scrubber 2 (BioLogic Software), Biacore Biaevaluation 4.0.1 software or Biacore T100 Evaluation software. Purified antibodies or DVD-Ig molecules were diluted in running buffer for capture across goat anti-human Fc reaction surfaces. Antibodies or DVD-Ig molecules to be captured as a ligand (1 μg/ml) were injected over reaction matrices at a flow rate of 10 μl/minute. During the assay, all measurements were referenced against the capture surface alone (i.e., with no captured antibody or DVD-Ig molecule). […] The equilibrium dissociation constant KD (M) of the reaction between antibodies and the target antigen was then calculated from the kinetic rate constants by the following formula: KD=Koff/Kₒₙ. Binding was recorded as a function of time and kinetic rate constants were calculated.
T1 sequence (P15692 other isoform, or with tags, fused parts or gaps): as the sequence (P15692 other isoform, or with tags, fused parts or gaps limits assumed) above

Row | Binder | Kd [nM] | kon [M⁻¹ s⁻¹]
9 | chBED-4G10-C8 (antibody, human IgG1, kappa, L234A L235A, V domains shown) VH: QVQLQQSGTELVKPGSSVKISCKASGYTFTSNYMHWIRQQPGNGLEWIGWIYPGDGDTNYNHNFNGKATLTADKSSSTAYMQLSSLTSEDFAVYFCASSTRAIPGWFTYWGQGTLVTVSS VL: DTVLTQSPALAVSPGERVSISCWASESVSTLMHWYQQKLGQQPKLLIYGASNLESGVPARFRGSGSGTDFTLTIDPVEADDTATYFCQQSWSDPYTFGAGTKLELKR | 0.59 | 1e+07
10 | chBEW-1B4 (antibody, human IgG1, kappa, L234A L235A, V domains shown, also called chBEW-1B4-C4) VH: QIQLVQSGPELKKPGESVKISCKASGYSFTNYGMYWVKQAPGQGLQYMGWIDTETGKPTYTDDFKGRFVFFLETSASTAYLQINNLKNEDMATYFCARWSGDTAGIRGPWFAYWGQGTLVTVSS VL: DIRMTQSPASLSASLGETVNIECLASEDIYSDLAWYQQKPGKSPQLLIYNANDLQKGVPSRFSGSGSGTQYSLKINSLQSEDVATYFCQQYNYYPGTFGAGTKLELKR | 0.011 | 1.1e+07
11 | chBEW-5C3 (antibody, human IgG1, kappa, L234A L235A, V domains shown, also called chBEW-5C3-E7) VH: QIQLVQSGPELKKPGESVKISCKASGYTFTNYGVYWVKQAPGQGLQYMGWINTETGKPTYADDFKGRFVFFLETSTNTAYLQINNLKNEDMATFFCARARQLDWFVYWGQGTLVTVSS VL: DTVLTQSPALTVSPGERVSISCRARESLTTSLCWFQQKPGQQPKLLIYGASKLESGVPARFSGSGSGTDFTLTIDPVEADDTATYFCQQSWYDPPTFGGGTKLELKR | 0.012 | 6.8e+06

Continued, values first:

Row | Kd [nM] | kon [M⁻¹ s⁻¹] | Binder
12 | 0.016 | 6.2e+06 | chBEW-8E6 (antibody, human IgG1, kappa, L234A L235A, V domains shown, also called chBEW-8E6-E4) VH: QIQLVQSGPELKKPGESVKISCKASGYTFTDYAMHWVKQAPGKVLKWMGWINTFTGKPTYIDDFKGRFVFSLEASASTANLQISDLKNEDTATYFCARGNYYSGYWYFDFWGPGTMVTMSS VL: DIQMTQSPASLSASLGETISIECRASEDISSNLAWYQQKSGKSPQLLIFAANRLQDGVPSRFSGSGSGTQFSLKISGMQPEDEGDYFCLQGSKFYTFGAGTKLELKR
13 | 0.023 | 3.5e+07 | chBEW-3A1 (antibody, human IgG1, kappa, L234A L235A, V domains shown, also called chBEW-3A1-D10-G9) VH: QVQLEQSGAELVKPGTSVKLSCMASGYTSSSNHMNWMKQTTGQGLEWIGIINPGSGGTRYNVKFEGKATLTVDKSSSTAFMQLNSLTPEDSAVYYCARAGFPGPFSYYAMGAWGQGTSVTVSS VL: DIQMTQSPPVLSASVGDRVTLSCKASQNIHNNLDWYQQKHGEAPKLLIFYTNNLQTGIPSRFSGSGSGTDYTLTISSLQPEDVATYYCYQYNSGYTFGAGTKLELKR
14 | 0.011 | 7.2e+06 | chBEW-1E3 (antibody, human IgG1, kappa, L234A L235A, V domains shown, also called chBEW-1E3-D6) VH: QIQLVQSGPELKKPGESVKISCKASGYPFTNSGMYWVKQAPGQGLQYMGWINTEAGKPTYADDFKGRFVFFLETSASTAYLQINNLKNEDMATYFCARWGYISDNSYGWFDYWGQGTLVTVSS VL: DTVLTQSPALAVSPGERVSISCRASEGVYSYMHWYQQNPGQQPKLLIYKASNLASGVPARFSGSGSGTDFTLTIDPVEADDTATYFCHQNWNDPLTFGSGTKLEIKR
15 | 0.0094 | 5.5e+06 | chBEW-1B10 (antibody, human IgG1, kappa, L234A L235A, V domains shown, also called chBEW-1B10-B9-C3) VH: EVQLVESGGGLVQPGRSLKLSCAASGFSFSKYDMAWFRQTPTKGLEWVASITTSGVGTYYRDSVKGRFTVSRDNAKSTLYLQMDSLRSEDTATYYCARGYGAMDAWGQGTSVTVSS VL: DIQMTQSPASLSASLEEIVTITCKASQDIDDYLSWYQQKPGKSPQLVIYAATRLADGVPSRFSGSGSGTQYSLKISRLQVDDSGIYYCLQSSSTPWTFGGGTNLELKR
